Biological target: flPOT1 A532P;TPP1(87) (Homo sapiens;Homo sapiens, UniProt Q9NUX5;Q96AP0 1-634;1-458, A532P|)
Experiment: fluorescence polarization; wild-type affinity stated; FP: 20 mM Hepes pH 7.5, 100 mM KCl, 2 mM MgCl2, 1 mM EDTA, 2 mM DTT, 1 mg/ml BSA, 5% glycerol, 75 nM polyT50 competitor, 2.5 nM probe, room temperature 30 min
Settings: protein: recombinant;recombinant, tags: N-terminal His6-pMocr, TEV-cleaved;N-terminal His6-MBP, copies: 1;1, label: 5' 6-FAM, single strand

Sequence of flPOT1 A532P;TPP1(87) (Q96AP0 whole entry, stated change not applied, one chain of several): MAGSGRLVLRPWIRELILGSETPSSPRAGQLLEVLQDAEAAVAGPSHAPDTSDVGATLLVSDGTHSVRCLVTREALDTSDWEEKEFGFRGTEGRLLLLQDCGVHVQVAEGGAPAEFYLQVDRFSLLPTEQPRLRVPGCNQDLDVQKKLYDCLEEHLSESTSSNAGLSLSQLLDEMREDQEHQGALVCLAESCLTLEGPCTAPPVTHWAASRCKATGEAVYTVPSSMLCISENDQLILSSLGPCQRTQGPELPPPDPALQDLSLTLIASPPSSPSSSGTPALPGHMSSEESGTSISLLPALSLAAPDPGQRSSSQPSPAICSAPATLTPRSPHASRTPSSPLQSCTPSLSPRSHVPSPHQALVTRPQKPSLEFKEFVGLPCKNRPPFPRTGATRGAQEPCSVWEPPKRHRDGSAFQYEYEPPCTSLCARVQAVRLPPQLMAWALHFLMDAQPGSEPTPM

Binder: TTAGGGTTAGGGTTAGGG (ssDNA) [telomeric 18mer (TTAGGG)3]
- binding result: binds

— article PMC5394233, “Structural and functional analysis of the human POT1-TPP1 telomeric complex” (Nature Communications, 2017)
